From paper PMC7849420 (Virology, 2021)

What was measured:
Experiment in all cases: ELISA
[1] = target: recombinant truncated SARS-CoV nucleocapsid (N) protein AA133-422 (SARS-CoV, UniProt P59595)
[2] = target: recombinant truncated HuCoV-NL63 nucleocapsid (N) protein AA100-377 (HuCoV-NL63, UniProt Q6Q1R8)
[3] = target: recombinant truncated SARS-CoV-2 nucleocapsid (N) protein AA133-419 (SARS-CoV-2, UniProt P0DTC9)
[4] = target: recombinant truncated SARS-CoV nucleocapsid (N) protein AA133-422 (SARS-CoV, UniProt P59595 133-422)
[5] = target: recombinant truncated SARS-CoV-2 nucleocapsid (N) protein AA133-419 (SARS-CoV-2, UniProt P0DTC9 133-419)
[6] = target: T1, recombinant truncated HuCoV-NL63 nucleocapsid (N) protein AA100-377 (HuCoV-NL63, UniProt Q6Q1R8 100-377)
T1 sequence: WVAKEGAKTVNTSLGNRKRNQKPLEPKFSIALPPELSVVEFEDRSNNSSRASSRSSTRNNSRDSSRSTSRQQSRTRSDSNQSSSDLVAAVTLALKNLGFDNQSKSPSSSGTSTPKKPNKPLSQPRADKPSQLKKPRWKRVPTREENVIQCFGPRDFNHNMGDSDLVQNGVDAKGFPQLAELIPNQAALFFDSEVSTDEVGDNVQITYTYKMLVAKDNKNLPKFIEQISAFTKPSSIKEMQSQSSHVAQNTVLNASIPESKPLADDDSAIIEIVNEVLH

Binder	Corected Average (background-corrected A450) [1] [absorbance at 450nm]	Corected Average (background-corrected A450) [2] [absorbance at 450nm]	Corected Average (background-corrected A450) [3] [absorbance at 450nm]	Corected Average (background-corrected A450) [4] [absorbance at 450nm]	Corected Average (background-corrected A450) [5] [absorbance at 450nm]	Corected Average (background-corrected A450) [6] [absorbance at 450nm]
mBG21 mouse monoclonal antibody against SARS-CoV-2 nucleocapsid protein (antibody, V domains shown) VH: QIQLVQSGPELKKPGETVKISCKASGYTFTDYSMHWVKQAPGKGSKWMGWINTETGEPTYADDFKGRFAFSLETSASTAYLQINNLKNEDTATYFCALRRWGQGTLVTVSA VL: IVMTQTPKFLLVSAGDRVTITCKASQSVSNDVAWFQQKPGQSPKLLIYFASNRYTGVPDRFTGSGYGTDFTFTITTVQAEDLAVYFCQQDYSSPWTFGGGTKLEIK	0.302	0.339	0.743			
mBG22 mouse monoclonal antibody against SARS-CoV-2 nucleocapsid protein (antibody, V domains shown) VH: QIQLVQSGPELKKPGETVKISCKASGYTFTDYSMHWVKQAPGKGSKWMGWINTETGEPTYADDFKGRFAFSLETSASTAYLQINNLKNEDTATYFCALRRWGQGTLVTVSA VL: IVMTQTPKFLLVSAGDRVTITCKASQSVSNDVAWFQQKPGQSPKLLIYFASNRYTGVPDRFTGSGYGTDFTFTITTVQAEDLAVYFCQQDYSSPWTFGGGTKLEIK	0.779	0.339	0.754			
mBG67 mouse monoclonal antibody against SARS-CoV-2 nucleocapsid protein (antibody, V domains shown) VH: EVQLVESGGGLVQPGGSLKLSCAASGFTFSNYGMSWVRQTPDKRLELVATINRNGGSTYYLDSVKVRFTISRDNAKSTLFLQLSSLKSDDTAMYYCARIYDFDEDYFDVWGAGTTVTVSS VL: QIVLTQSPAIMSASLGERVTMTCTASSSVSSSYLHWYQQKPGSSPKLWIYSTSNLASGVPARFSGSGSGTSYSLTISSMEAEDAATYYCLQYHRSPWTFGGGTKLEIK				0.094	0.861	
mBG86 mouse monoclonal antibody against SARS-CoV-2 nucleocapsid protein (antibody, V domains shown) VH: EVQLVESGGGLVQPGGSLKLSCAASGFTFSNYGMSWVRQTPDKRLELVATINRNGGSTYYLDSVKVRFTISRDNAKSTLFLQMSSLKSEDTAMYYCARIYDYDEDYFDVWGAGTTVTVSS VL: QIVLTQSPAIMSASLGERVTMTCTASSSVSSSYLHWYQQKPGSSPKLWIYSTSNLASGVPARFSGSGSGTSYSLTISSMEAEDAATYYCLQYHRSPWTFGGGTKLEIK					0.806	
mBG17 mouse monoclonal antibody against SARS-CoV-2 nucleocapsid protein (antibody, V domains shown) VH: EVKLEESGGGLVQPGGSMKFSCVASGFTFSDYWMNWVRQSPDKGLEWVAEIRLKSNNYATHYAASVKGRFTISRDDSKSSVYLQMNNLRAEDSGIYYCTRSAMDYWGQGTSVTVSS VL: DIVMSQSPSSLAVSVGEKITMSCKSSQSLLYTSDQKNYLAWFQQKPGQSPKLLIFWASTRDSGVPDRFTGSGSGTDFTLTISSVKAEDLAVYYCQQFYNYPRTFGGGTKLEIK				0.872	0.832	0.365
